± gives the uncertainty stated by the source.
B1: Ubiquitin-protein ligase residues 30 to 86; numbered along this chain, Q05086 (parent)
chain: KHLIERYYHQLTEGCGNEACTNEFCASCPTFLRMDNNAAAIKALELYKINAKLCDPH

Variants of: B1
Test: abundance fitness (aPCA) (normalised: wild type 0, dead -1); higher = more abundant; growth selection in yeast, the domain comes from the species named
Conditions: Homo sapiens

Row | Variant | abundance fitness
1 | KHLIHRYYHQLTEGCGNEACTNEFCASCPTFLRMDNNAAAIKALELYKINAKLCDPH [E5H] | -0.04 ± 0.048
2 | KHLIIRYYHQLTEGCGNEACTNEFCASCPTFLRMDNNAAAIKALELYKINAKLCDPH [E5I] | -0.142 ± 0.049
3 | KHLIKRYYHQLTEGCGNEACTNEFCASCPTFLRMDNNAAAIKALELYKINAKLCDPH [E5K] | 0.037 ± 0.089
4 | KHLILRYYHQLTEGCGNEACTNEFCASCPTFLRMDNNAAAIKALELYKINAKLCDPH [E5L] | -0.123 ± 0.045
5 | KHLIMRYYHQLTEGCGNEACTNEFCASCPTFLRMDNNAAAIKALELYKINAKLCDPH [E5M] | -0.105 ± 0.098
6 | KHLINRYYHQLTEGCGNEACTNEFCASCPTFLRMDNNAAAIKALELYKINAKLCDPH [E5N] | 0.058 ± 0.049
7 | KHLIPRYYHQLTEGCGNEACTNEFCASCPTFLRMDNNAAAIKALELYKINAKLCDPH [E5P] | -0.068 ± 0.05
8 | KHLIQRYYHQLTEGCGNEACTNEFCASCPTFLRMDNNAAAIKALELYKINAKLCDPH [E5Q] | 0.037 ± 0.1
9 | KHLIRRYYHQLTEGCGNEACTNEFCASCPTFLRMDNNAAAIKALELYKINAKLCDPH [E5R] | 0.015 ± 0.048
10 | KHLISRYYHQLTEGCGNEACTNEFCASCPTFLRMDNNAAAIKALELYKINAKLCDPH [E5S] | -0.01 ± 0.043
11 | KHLITRYYHQLTEGCGNEACTNEFCASCPTFLRMDNNAAAIKALELYKINAKLCDPH [E5T] | -0.005 ± 0.046
12 | KHLIVRYYHQLTEGCGNEACTNEFCASCPTFLRMDNNAAAIKALELYKINAKLCDPH [E5V] | -0.211 ± 0.048
13 | KHLIWRYYHQLTEGCGNEACTNEFCASCPTFLRMDNNAAAIKALELYKINAKLCDPH [E5W] | -0.08 ± 0.094
14 | KHLIEAYYHQLTEGCGNEACTNEFCASCPTFLRMDNNAAAIKALELYKINAKLCDPH [R6A] | -0.021 ± 0.051
15 | KHLIECYYHQLTEGCGNEACTNEFCASCPTFLRMDNNAAAIKALELYKINAKLCDPH [R6C] | -0.271 ± 0.058
16 | KHLIEDYYHQLTEGCGNEACTNEFCASCPTFLRMDNNAAAIKALELYKINAKLCDPH [R6D] | -0.028 ± 0.058
17 | KHLIEEYYHQLTEGCGNEACTNEFCASCPTFLRMDNNAAAIKALELYKINAKLCDPH [R6E] | -0.078 ± 0.071
18 | KHLIEFYYHQLTEGCGNEACTNEFCASCPTFLRMDNNAAAIKALELYKINAKLCDPH [R6F] | -0.147 ± 0.05
19 | KHLIEHYYHQLTEGCGNEACTNEFCASCPTFLRMDNNAAAIKALELYKINAKLCDPH [R6H] | -0.027 ± 0.046
20 | KHLIEIYYHQLTEGCGNEACTNEFCASCPTFLRMDNNAAAIKALELYKINAKLCDPH [R6I] | -0.151 ± 0.05
21 | KHLIEKYYHQLTEGCGNEACTNEFCASCPTFLRMDNNAAAIKALELYKINAKLCDPH [R6K] | 0.029 ± 0.054
22 | KHLIELYYHQLTEGCGNEACTNEFCASCPTFLRMDNNAAAIKALELYKINAKLCDPH [R6L] | -0.097 ± 0.041
23 | KHLIEMYYHQLTEGCGNEACTNEFCASCPTFLRMDNNAAAIKALELYKINAKLCDPH [R6M] | -0.079 ± 0.054

Row | Variant | abundance fitness
24 | KHLIENYYHQLTEGCGNEACTNEFCASCPTFLRMDNNAAAIKALELYKINAKLCDPH [R6N] | -0.006 ± 0.051
25 | KHLIEPYYHQLTEGCGNEACTNEFCASCPTFLRMDNNAAAIKALELYKINAKLCDPH [R6P] | 0.011 ± 0.044
26 | KHLIESYYHQLTEGCGNEACTNEFCASCPTFLRMDNNAAAIKALELYKINAKLCDPH [R6S] | -0.026 ± 0.041
27 | KHLIETYYHQLTEGCGNEACTNEFCASCPTFLRMDNNAAAIKALELYKINAKLCDPH [R6T] | -0.017 ± 0.043
28 | KHLIEVYYHQLTEGCGNEACTNEFCASCPTFLRMDNNAAAIKALELYKINAKLCDPH [R6V] | -0.044 ± 0.051
29 | KHLIEWYYHQLTEGCGNEACTNEFCASCPTFLRMDNNAAAIKALELYKINAKLCDPH [R6W] | -0.292 ± 0.072
30 | KHLIEYYYHQLTEGCGNEACTNEFCASCPTFLRMDNNAAAIKALELYKINAKLCDPH [R6Y] | -0.209 ± 0.05
31 | KHLIERAYHQLTEGCGNEACTNEFCASCPTFLRMDNNAAAIKALELYKINAKLCDPH [Y7A] | -0.448 ± 0.06
32 | KHLIERCYHQLTEGCGNEACTNEFCASCPTFLRMDNNAAAIKALELYKINAKLCDPH [Y7C] | -0.65 ± 0.08
33 | KHLIERDYHQLTEGCGNEACTNEFCASCPTFLRMDNNAAAIKALELYKINAKLCDPH [Y7D] | -0.683 ± 0.13
34 | KHLIEREYHQLTEGCGNEACTNEFCASCPTFLRMDNNAAAIKALELYKINAKLCDPH [Y7E] | -0.963 ± 0.096
35 | KHLIERFYHQLTEGCGNEACTNEFCASCPTFLRMDNNAAAIKALELYKINAKLCDPH [Y7F] | -0.034 ± 0.1
36 | KHLIERGYHQLTEGCGNEACTNEFCASCPTFLRMDNNAAAIKALELYKINAKLCDPH [Y7G] | -0.77 ± 0.05
37 | KHLIERHYHQLTEGCGNEACTNEFCASCPTFLRMDNNAAAIKALELYKINAKLCDPH [Y7H] | -0.289 ± 0.11
38 | KHLIERKYHQLTEGCGNEACTNEFCASCPTFLRMDNNAAAIKALELYKINAKLCDPH [Y7K] | -0.796 ± 0.096
39 | KHLIERLYHQLTEGCGNEACTNEFCASCPTFLRMDNNAAAIKALELYKINAKLCDPH [Y7L] | -0.154 ± 0.06
40 | KHLIERMYHQLTEGCGNEACTNEFCASCPTFLRMDNNAAAIKALELYKINAKLCDPH [Y7M] | -0.215 ± 0.075
41 | KHLIERNYHQLTEGCGNEACTNEFCASCPTFLRMDNNAAAIKALELYKINAKLCDPH [Y7N] | -0.658 ± 0.2
42 | KHLIERQYHQLTEGCGNEACTNEFCASCPTFLRMDNNAAAIKALELYKINAKLCDPH [Y7Q] | -0.781 ± 0.1
43 | KHLIERRYHQLTEGCGNEACTNEFCASCPTFLRMDNNAAAIKALELYKINAKLCDPH [Y7R] | -0.925 ± 0.064
44 | KHLIERSYHQLTEGCGNEACTNEFCASCPTFLRMDNNAAAIKALELYKINAKLCDPH [Y7S] | -0.799 ± 0.066
45 | KHLIERWYHQLTEGCGNEACTNEFCASCPTFLRMDNNAAAIKALELYKINAKLCDPH [Y7W] | -0.184 ± 0.069
46 | KHLIERYAHQLTEGCGNEACTNEFCASCPTFLRMDNNAAAIKALELYKINAKLCDPH [Y8A] | -0.06 ± 0.07
